Tests used:
CC[C@H](C)[C@H](N)C(=O)O = assay: cells, lysate or membranes named; conditions: pH 7.5
[1] = molecular target: TB IleRS (M. tuberculosis isoleucyl-tRNA synthetase) (Mycobacterium tuberculosis, UniProt P9WFV3); assay: tRNA charging (aminoacylation) assay, sensitivity of TB IleRS to PMA; assay type: biochemical; conditions: concentrations of up to 250 μM
Method: The sensitivity of the TB IleRS for the drug pseudomonic acid A (PMA; a specific inhibitor of some prokaryotic IleRS enzymes) was tested.
The conditions of the charging assay were as follows: At time zero, 10 μl of crude extract or purified protein was added to a reaction mixture containing 50 mM HEPES, pH 7.5, 8 mM MgCl2, 20 μM tritiated isoleucine (New England Nuclear) with a specific activity of 2200 cpm/pmol, 10 mM KF, 4 mM ATP, and 0.1 mM total tRNA from either E. coli (Sigma) or yeast (S. cerevisiae, Boehringer-Mannheim Biochemicals). At various times, 10-20 μl of the reaction were withdrawn, spotted onto Whatman 3 MM cellolose filter diskettes, and the reaction was quenched by placing the filters in 5% ice cold TCA (trichloroacetic acid). Diskettes were washed three times with ice cold 5% TCA, once with 5% ice cold ethanol, once with ether, and air dried. The amount of [^3 H]-isoleucine incorporated into tRNA bound to the filter was determined by scintillation counting in 5 mls Betafluor (Packard 1600 TR scintillation counter).

TB IleRS (M. tuberculosis isoleucyl-tRNA synthetase), sequence (P9WFV3 2-1032): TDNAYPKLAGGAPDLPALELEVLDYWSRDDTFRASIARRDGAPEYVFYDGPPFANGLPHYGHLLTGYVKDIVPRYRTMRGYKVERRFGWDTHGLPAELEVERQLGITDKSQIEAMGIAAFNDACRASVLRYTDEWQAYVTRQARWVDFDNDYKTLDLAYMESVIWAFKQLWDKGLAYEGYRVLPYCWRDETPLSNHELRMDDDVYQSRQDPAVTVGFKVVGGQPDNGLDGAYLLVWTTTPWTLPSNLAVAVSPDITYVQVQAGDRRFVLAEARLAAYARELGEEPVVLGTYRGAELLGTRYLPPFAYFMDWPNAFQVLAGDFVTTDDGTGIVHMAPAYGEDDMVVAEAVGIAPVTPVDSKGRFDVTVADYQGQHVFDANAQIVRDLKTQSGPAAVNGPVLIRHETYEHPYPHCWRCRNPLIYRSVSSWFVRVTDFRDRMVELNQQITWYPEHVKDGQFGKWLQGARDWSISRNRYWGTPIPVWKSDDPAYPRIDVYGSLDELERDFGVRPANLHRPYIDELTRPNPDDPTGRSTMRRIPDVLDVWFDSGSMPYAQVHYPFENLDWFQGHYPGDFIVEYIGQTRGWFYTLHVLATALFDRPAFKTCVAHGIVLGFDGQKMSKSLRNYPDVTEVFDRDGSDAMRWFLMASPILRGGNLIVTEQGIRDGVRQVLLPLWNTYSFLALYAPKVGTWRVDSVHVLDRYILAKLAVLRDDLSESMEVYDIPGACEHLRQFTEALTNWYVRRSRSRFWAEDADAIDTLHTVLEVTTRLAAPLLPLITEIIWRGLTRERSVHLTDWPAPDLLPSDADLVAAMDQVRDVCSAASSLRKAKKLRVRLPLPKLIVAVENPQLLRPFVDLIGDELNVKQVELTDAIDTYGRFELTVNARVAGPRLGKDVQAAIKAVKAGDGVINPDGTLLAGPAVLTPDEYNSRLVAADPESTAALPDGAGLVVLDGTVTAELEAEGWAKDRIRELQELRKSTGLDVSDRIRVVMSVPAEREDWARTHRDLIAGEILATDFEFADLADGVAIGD

Compound	Km (CC[C@H](C)[C@H](N)C(=O)O)	inhibition of the charging activity of the enzyme [1]
purified TB GST-IleRS fusion protein with or without thrombin cleavage (Mycobacterium tuberculosis H37Rv)	1.1 ± 0.2 µM	
C/C(=C\C(=O)OCCCCCCCCC(=O)O)C[C@@H]1OC[C@H](C[C@@H]2O[C@H]2[C@@H](C)[C@H](C)O)[C@@H](O)[C@H]1O [PMA, pseudomonic acid A]		did not inhibit

Source: patent publication US5756327A, “Recombinant mycobacterial isoleucyl-tRNA synthetase genes, tester strains and assays” (priority 1995, dated 1998)
